B1: unnamed (parent)
chain 1: DHQIRELTAKMETQSMYVSELKRTIRTLEDKVAEIEAQQCNGIYIWKIGNFGMHLKCQEEEKPVVIHSPGFYTGKPGYKLCMRLHLQLPTAQRCANYISLFVHTMQGEYDSHLPWPFQGTIRLTILDQSEAPVRQNHEEIMDAKPELLAFQRPTIPRNPKGFGYVTFMHLEALRQRTFIKDDTLLVRCEVSTRFDMGSLRREGFQPRSTDAGV
chain 2: GGGPYAQGEDARMLSLVSKTEIEEDSFRQMPTEDEYMDRPSQ
B2: unnamed (parent)
chain 1: MSLLNCENSCGSSQSESDCCVAMASSCSAVTKDDSVGGTASTGNLSSSFMEEIQGYDVEFDPPLESKYECPICLMALREAVQTPCGHRFCKACIIKSIRDAGHKCPVDNEILLENQLFPDNFAKREILSLMVKCPNEGCLHKMELRHLEDHQAHCEFALMDCPQCQRPFQKFHINIHILKDCPRRQVSCDNCAASMAFEDKEIHDQNCPLANVICEYCNTILIREQMPNHYDLDCPTAPIPCTFSTFGCHEKMQRNHLARHLQENTQSHMRMLAQAVHSLSVIPDSGYISEVRNFQETIHQLEGRLVRQDHQIRELTAKMETQSMYVSELKRTIRTLEDKVAEIEAQQCNGIYIWKIGNFGMHLKCQEEEKPVVIHSPGFYTGKPGYKLCMRLHLQLPTAQRCANYISLFVHTMQGEYDSHLPWPFQGTIRLTILDQSEAPVRQNHEEIMDAKPELLAFQRPTIPRNPKGFGYVTFMHLEALRQRTFIKDDTLLVRCEVSTRFDMGSLRREGFQPRSTDAGV
chain 2: MEHDLERGPPGPRRPPRGPPLSSSLGLALLLLLLALLFWLYIVMSDWTGGALLVLYSFALMLIIIILIIFIFRRDLLCPLGALCILLLMITLLLIALWNLHGQALFLGIVLFIFGCLLVLGIWIYLLEMLWRLGATIWQLLAFFLAFFLDLILLIIALYLQQNWWTLLVDLLWLLLFLAILIWMYYHGQRHSDEHHHDDSLPHPQQATDDSGHESDSNSNEGRHHLLVSGAGDGPPLCSQNLGAPGGGPDNGPQDPDNTDDNGPQDPDNTDDNGPHDPLPQDPDNTDDNGPQDPDNTDDNGPHDPLPHSPSDSAGNDGGPPQLTEEVENKGGDQGPPLMTDGGGGHSHDSGHGGGDPHLPTLLLGSSGSGGDDDDPHGPVQLSYYD

Variants of: B1
Test: AlphaScreen
Details: with partner chain of the complex shown; parent: 100; read off a plot

| Variant | percent of parent [%] |
| --- | --- |
| chain 1 DHQIRELTAKMETQSMYVSELKRTIRTLEDKVAEIEAQQCNGIYIWKIGNFGMHLKCQEEEKPVVIHSPGFYTGKPGYKLCMALHLQLPTAQRCANYISLFVHTMQGEYDSHLPWPFQGTIRLTILDQSEAPVRQNHEEIMDAKPELLAFQRPTIPRNPKGFGYVTFMHLEALRQRTFIKDDTLLVRCEVSTRFDMGSLRREGFQPRSTDAGV [chain 1 R83A] | 1 |

Variants of: B2
Test: co-immunoprecipitation, quantified immunoblot
Details: with partner chain of the complex shown; HEK293 cells; parent: 1.3e+07; read off a plot

| Variant | response (relative intensity) |
| --- | --- |
| chain 1 MSLLNCENSCGSSQSESDCCVAMASSCSAVTKDDSVGGTASTGNLSSSFMEEIQGYDVEFDPPLESKYECPICLMALREAVQTPCGHRFCKACIIKSIRDAGHKCPVDNEILLENQLFPDNFAKREILSLMVKCPNEGCLHKMELRHLEDHQAHCEFALMDCPQCQRPFQKFHINIHILKDCPRRQVSCDNCAASMAFEDKEIHDQNCPLANVICEYCNTILIREQMPNHYDLDCPTAPIPCTFSTFGCHEKMQRNHLARHLQENTQSHMRMLAQAVHSLSVIPDSGYISEVRNFQETIHQLEGRLVRQDHQIRELTAKMETQSMYVSELKRTIRTLEDKVAEIEAQQCNGIYIWKIGNFGMHLKCQEEEKPVVIHSPGFYTGKPGYKLCMRLHLQLPTAQRCANYISLFVHTMQGEYDSHLPWPFQGTIRLTILDQSEAPVRQNHEEIMDAKPELLAFQRPTIPRNPKGFGAVTFMHLEALRQRTFIKDDTLLVRCEVSTRFDMGSLRREGFQPRSTDAGV [chain 1 Y473A] | 5.5e+06 |
| chain 1 MSLLNCENSCGSSQSESDCCVAMASSCSAVTKDDSVGGTASTGNLSSSFMEEIQGYDVEFDPPLESKYECPICLMALREAVQTPCGHRFCKACIIKSIRDAGHKCPVDNEILLENQLFPDNFAKREILSLMVKCPNEGCLHKMELRHLEDHQAHCEFALMDCPQCQRPFQKFHINIHILKDCPRRQVSCDNCAASMAFEDKEIHDQNCPLANVICEYCNTILIREQMPNHYDLDCPTAPIPCTFSTFGCHEKMQRNHLARHLQENTQSHMRMLAQAVHSLSVIPDSGYISEVRNFQETIHQLEGRLVRQDHQIRELTAKMETQSMYVSELKRTIRTLEDKVAEIEAQQCNGIYIWKIGNFGMHLKCQEEEKPVVIHSPGFYTGKPGYKLCMRLHLQLPTAQRCANYISLFVHTMQGEYDSHLPWPFQGTIRLTILDQSEAPVRQNHEEIMDAKPELLAFQRPTIPRNPAGFGYVTFMHLEALRQRTFIKDDTLLVRCEVSTRFDMGSLRREGFQPRSTDAGV [chain 1 K469A] | 1.8e+07 |
| chain 1 MSLLNCENSCGSSQSESDCCVAMASSCSAVTKDDSVGGTASTGNLSSSFMEEIQGYDVEFDPPLESKYECPICLMALREAVQTPCGHRFCKACIIKSIRDAGHKCPVDNEILLENQLFPDNFAKREILSLMVKCPNEGCLHKMELRHLEDHQAHCEFALMDCPQCQRPFQKFHINIHILKDCPRRQVSCDNCAASMAFEDKEIHDQNCPLANVICEYCNTILIREQMPNHYDLDCPTAPIPCTFSTFGCHEKMQRNHLARHLQENTQSHMRMLAQAVHSLSVIPDSGYISEVRNFQETIHQLEGRLVRQDHQIRELTAKMETQSMYVSELKRTIRTLEDKVAEIEAQQCNGIYIWKIGNFGMHLKCQEEEKPVVIHSPGFYTGKPGYKLCMRLHLQLPTAQRCANYISLFVHTMQGEYDSHLPWPFQGTIRLTILDQSEAPVRQNHEEIMDAKPELLAFQRPTIPRNPKGAGYVTFMHLEALRQRTFIKDDTLLVRCEVSTRFDMGSLRREGFQPRSTDAGV [chain 1 F471A] | 6e+06 |
| chain 1 MSLLNCENSCGSSQSESDCCVAMASSCSAVTKDDSVGGTASTGNLSSSFMEEIQGYDVEFDPPLESKYECPICLMALREAVQTPCGHRFCKACIIKSIRDAGHKCPVDNEILLENQLFPDNFAKREILSLMVKCPNEGCLHKMELRHLEDHQAHCEFALMDCPQCQRPFQKFHINIHILKDCPRRQVSCDNCAASMAFEDKEIHDQNCPLANVICEYCNTILIREQMPNHYDLDCPTAPIPCTFSTFGCHEKMQRNHLARHLQENTQSHMRMLAQAVHSLSVIPDSGYISEVRNFQETIHQLEGRLVRQDHQIRELTAKMETQSMYVSELKRTIRTLEDKVAEIEAQQCNGIYIWKIGNFGMHLKCQEEEKPVVIHSPGFYTGKPGYKLCMALHLQLPTAQRCANYISLFVHTMQGEYDSHLPWPFQGTIRLTILDQSEAPVRQNHEEIMDAKPELLAFQRPTIPRNPKGFGYVTFMHLEALRQRTFIKDDTLLVRCEVSTRFDMGSLRREGFQPRSTDAGV [chain 1 R392A] | 2.5e+06 |
